# Data: patent US20240118272A1
# Experiments:
# [1] = target: CD81(ECD)-ALP conjugate (human; bovine); test: HI-1000 capture immunoassay; calibrator C5, 883.16 mU/L; run 3
# [2] = target: CD81(ECD)-ALP conjugate (human; bovine); test: HI-1000 capture immunoassay; calibrator C1, 4 ng/mL; run 1
# [3] = target: CD81(ECD)-ALP conjugate (human; bovine); test: HI-1000 capture immunoassay; calibrator C2, 20 ng/mL; mean of 3
# [4] = target: CD81(ECD)-ALP conjugate (human; bovine); test: HI-1000 capture immunoassay; calibrator C1, 3.45 mU/L; run 3
# [5] = target: CD81(ECD)-ALP conjugate (human; bovine); test: HI-1000 capture immunoassay; calibrator C4, 500 ng/mL; run 1
# [6] = target: CD81(ECD)-ALP conjugate (human; bovine); test: HI-1000 capture immunoassay; calibrator C3, 55.20 mU/L; run 3
# [7] = target: CD81(ECD)-ALP conjugate (human; bovine); test: HI-1000 capture immunoassay; calibrator C5, 883.16 mU/L; mean of 3
# [8] = target: CD81(ECD)-ALP conjugate (human; bovine); test: HI-1000 capture immunoassay; calibrator C2, 13.80 mU/L; run 2
# [9] = target: CD81(ECD)-ALP conjugate (human; bovine); test: HI-1000 capture immunoassay; calibrator C3, 100 ng/mL; mean of 3
# [10] = target: CD81(ECD)-ALP conjugate (human; bovine); test: HI-1000 capture immunoassay; calibrator C3, 55.20 mU/L; run 1
# [11] = target: CD81(ECD)-ALP conjugate (human; bovine); test: HI-1000 capture immunoassay; calibrator C1, 3.45 mU/L; run 2
# [12] = target: CD81(ECD)-ALP conjugate (human; bovine); test: HI-1000 capture immunoassay; calibrator C1, 4 ng/mL; run 3
# [13] = target: CD81(ECD)-ALP conjugate (human; bovine); test: HI-1000 capture immunoassay; calibrator C5, 2500 ng/mL; mean of 3
# [14] = target: CD81(ECD)-ALP conjugate (human; bovine); test: HI-1000 capture immunoassay; calibrator C3, 100 ng/mL; run 1
# [15] = target: CD81(ECD)-ALP conjugate (human; bovine); test: HI-1000 capture immunoassay; calibrator C2, 20 ng/mL; run 1
# [16] = target: CD81(ECD)-ALP conjugate (human; bovine); test: HI-1000 capture immunoassay; calibrator C5, 883.16 mU/L; run 1
# [17] = target: CD81(ECD)-ALP conjugate (human; bovine); test: HI-1000 capture immunoassay; calibrator C5, 2500 ng/mL; run 1
# [18] = target: CD81(ECD)-ALP conjugate (human; bovine); test: HI-1000 capture immunoassay; calibrator C1, 4 ng/mL; run 2
# [19] = target: CD81(ECD)-ALP conjugate (human; bovine); test: HI-1000 capture immunoassay; calibrator C4, 500 ng/mL; run 2
# [20] = target: CD81(ECD)-ALP conjugate (human; bovine); test: HI-1000 capture immunoassay; calibrator C4, 220.80 mU/L; mean of 3
# [21] = target: CD81(ECD)-ALP conjugate (human; bovine); test: HI-1000 capture immunoassay; calibrator C3, 100 ng/mL; run 2
# [22] = target: CD81(ECD)-ALP conjugate (human; bovine); test: HI-1000 capture immunoassay; calibrator C4, 500 ng/mL; run 3
# [23] = target: CD81(ECD)-ALP conjugate (human; bovine); test: HI-1000 capture immunoassay; calibrator C1, 4 ng/mL; mean of 3
# [24] = target: CD81(ECD)-ALP conjugate (human; bovine); test: HI-1000 capture immunoassay; calibrator C4, 500 ng/mL; mean of 3
# [25] = target: CD81(ECD)-ALP conjugate (human; bovine); test: HI-1000 capture immunoassay; calibrator C3, 55.20 mU/L; run 2
# [26] = target: CD81(ECD)-ALP conjugate (human; bovine); test: HI-1000 capture immunoassay; calibrator C4, 220.80 mU/L; run 3
# [27] = target: CD81(ECD)-ALP conjugate (human; bovine); test: HI-1000 capture immunoassay; calibrator C1, 3.45 mU/L; mean of 3
# [28] = target: CD81(ECD)-ALP conjugate (human; bovine); test: HI-1000 capture immunoassay; calibrator C5, 883.16 mU/L; run 2
# [29] = target: CD81(ECD)-ALP conjugate (human; bovine); test: HI-1000 capture immunoassay; calibrator C3, 100 ng/mL; run 3
# [30] = target: CD81(ECD)-ALP conjugate (human; bovine); test: HI-1000 capture immunoassay; calibrator C4, 220.80 mU/L; run 1
# [31] = target: CD81(ECD)-ALP conjugate (human; bovine); test: HI-1000 capture immunoassay; calibrator C2, 13.80 mU/L; run 1
# [32] = target: CD81(ECD)-ALP conjugate (human; bovine); test: HI-1000 capture immunoassay; calibrator C2, 13.80 mU/L; mean of 3
# [33] = target: CD81(ECD)-ALP conjugate (human; bovine); test: HI-1000 capture immunoassay; calibrator C5, 2500 ng/mL; run 2
# [34] = target: CD81(ECD)-ALP conjugate (human; bovine); test: HI-1000 capture immunoassay; calibrator C5, 2500 ng/mL; run 3
# [35] = target: CD81(ECD)-ALP conjugate (human; bovine); test: HI-1000 capture immunoassay; calibrator C3, 55.20 mU/L; mean of 3
# [36] = target: CD81(ECD)-ALP conjugate (human; bovine); test: HI-1000 capture immunoassay; calibrator C4, 220.80 mU/L; run 2
# [37] = target: CD81(ECD)-ALP conjugate (human; bovine); test: HI-1000 capture immunoassay; calibrator C2, 20 ng/mL; run 2
# [38] = target: CD81(ECD)-ALP conjugate (human; bovine); test: HI-1000 capture immunoassay; calibrator C2, 13.80 mU/L; run 3
# [39] = target: CD81(ECD)-ALP conjugate (human; bovine); test: HI-1000 capture immunoassay; calibrator C2, 20 ng/mL; run 3
# [40] = target: CD81(ECD)-ALP conjugate (human; bovine); test: HI-1000 capture immunoassay; calibrator C1, 3.45 mU/L; run 1
# CD81(ECD)-ALP conjugate (human; bovine), sequence (chain, as listed by the source, chain 1 of 2): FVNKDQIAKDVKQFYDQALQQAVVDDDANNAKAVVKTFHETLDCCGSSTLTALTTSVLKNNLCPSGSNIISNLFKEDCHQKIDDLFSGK
# CD81(ECD)-ALP conjugate (human; bovine), sequence (P19111 20-506, chain 2 of 2): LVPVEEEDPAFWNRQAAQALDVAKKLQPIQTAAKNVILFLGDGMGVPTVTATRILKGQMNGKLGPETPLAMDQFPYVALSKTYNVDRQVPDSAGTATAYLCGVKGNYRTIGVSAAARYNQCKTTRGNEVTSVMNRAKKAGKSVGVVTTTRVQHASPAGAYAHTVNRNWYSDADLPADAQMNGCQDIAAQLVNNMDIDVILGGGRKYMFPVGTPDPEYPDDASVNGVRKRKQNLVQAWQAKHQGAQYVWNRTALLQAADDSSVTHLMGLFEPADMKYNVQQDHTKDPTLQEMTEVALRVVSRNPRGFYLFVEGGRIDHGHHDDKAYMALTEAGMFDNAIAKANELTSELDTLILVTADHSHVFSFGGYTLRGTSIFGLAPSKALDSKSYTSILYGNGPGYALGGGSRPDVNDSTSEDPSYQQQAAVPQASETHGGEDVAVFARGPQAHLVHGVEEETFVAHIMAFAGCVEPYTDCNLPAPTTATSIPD
substance,measurement,setting,value
anti-CD81 antibody (Clone: 5A6),Count value,[1],494000 count
same,Count value,[2],1270 count
same,Count value (av),[3],4500 count
same,Count value,[4],1340 count
same,Count value,[5],101000 count
same,Count value,[6],20900 count
same,Count value (av),[7],498000 count
same,Count value,[8],4600 count
same,Count value (av),[9],19900 count
same,Count value,[10],20900 count
same,Count value,[11],1430 count
same,Count value,[12],1280 count
same,Count value (av),[13],494000 count
same,Count value,[14],20000 count
same,Count value,[15],4480 count
same,Count value,[16],503000 count
same,Count value,[17],498000 count
same,Count value,[18],1300 count
same,Count value,[19],100000 count
same,Count value (av),[20],102000 count
same,Count value,[21],20000 count
same,Count value,[22],99600 count
same,Count value (av),[23],1280 count
same,Count value (av),[24],100000 count
same,Count value,[25],20400 count
same,Count value,[26],102000 count
same,Count value (av),[27],1380 count
same,Count value,[28],496000 count
same,Count value,[29],19600 count
same,Count value,[30],105000 count
same,Count value,[31],4650 count
same,Count value (av),[32],4620 count
same,Count value,[33],496000 count
same,Count value,[34],486000 count
same,Count value (av),[35],20700 count
same,Count value,[36],99500 count
same,Count value,[37],4380 count
same,Count value,[38],4610 count
same,Count value,[39],4640 count
same,Count value,[40],1380 count
